Measured values as given in patent publication US20240382614A1, “Self-Assembling Nanoparticles Based On Amphiphilic Peptides for Drug Delivery Applications” (Barinthus Biotherapeutics North America, Inc., priority 2021, published 2024).

Assays:
[1] = system: T1, Ac-A′SK(Ac)SB-AMC (Compound 18)
T1 sequence: XSKSX

[2] = system: T2, Ac-A′SK(Ac)SnL-AMC (Compound 24)
T2 sequence: XSKSX

[3] = system: T3, Ac-A′SK(Ac)VB-AMC (Compound 16)
T3 sequence: XSKVX

[4] = system: T4, Ac-A′SK(Ac)VnL-AMC (Compound 22)
T4 sequence: XSKVX

[5] = system: T5, Ac-A′SKSB-AMC (Compound 19)
T5 sequence: XSKSX

[6] = system: T6, Ac-A′SKSnL-AMC (Compound 25)
T6 sequence: XSKSX

[7] = system: T7, Ac-A′SKVB-AMC (Compound 17)
T7 sequence: XSKVX

[8] = system: T8, Ac-A′SKVnL-AMC (Compound 23)
T8 sequence: XSKVX

[9] = system: T9, Ac-A′SPVB-AMC (Compound 15)
T9 sequence: XSPVX

[10] = system: T10, Ac-A′SPVnL-AMC (Compound 21)
T10 sequence: XSPVX

[11] = system: T11, Ac-A′VB-AMC (Compound 14)
T11 sequence: XVX

[12] = system: T12, Ac-A′VnL-AMC (Compound 20)
T12 sequence: XVX

[13] = system: coculture of antigen presenting cells and CD4 T cell clones (“OT-II cells”); test: IFNγ and IL-17 in supernatant of coculture of antigen presenting cells and OT-II CD4 T cell clones; type: cell-based; conditions: D1 in particles of Compound 113 with D2 Compound 166, with or without D3 Compound 4 (Table 10)
Protocol: The cell culture supernatant was assessed for the cytokines IFNγ and IL-17 to assess for the proliferation of Th1- and Th17-type CD4 T cells, respectively (FIG. 11).

[14] = system: coculture of antigen presenting cells and CD4 T cell clones (“OT-II cells”); test: CD4 T cell induction in coculture of antigen presenting cells and OT-II CD4 T cell clones; type: cell-based; conditions: D1 in particles of Compound 113 with D2 Compound 166 and D3 MDP, TDB, MPL, LPS or Compound 4 (Table 9, FIG. 10)
[15] = Solubility and loading of mTOR inhibitors in nanoparticle micelles of amphiphiles S-B-[U]-H; type: physicochemical; conditions: admixed with amphiphile Compound 113
[16] = Turbidity (OD 490 nm) of particle formulations; type: physicochemical; conditions: Table 15; no 2nd amphiphile
Protocol: It was unknown how the surface group (SG) would impact the tolerability of amphiphiles of formula S-B-H-D carrying an immunostimulant. Therefore, to evaluate the impact of surface group composition on tolerability, amphiphiles of varying SG and drug molecule composition were prepared and evaluated in mice (Table 15 and FIG. 14).

For Cathepsin B (Sino Biological), the “percent of peptide-AMC that is cleaved” value [1] was “norleucine (nL) and alpha-amino butyric (B or aBut) are tolerated at the P1 position”, the “percent of peptide-AMC that is cleaved” value [2] was “norleucine (nL) and alpha-amino butyric (B or aBut) are tolerated at the P1 position” and the “percent of peptide-AMC that is cleaved” value [3] was “norleucine (nL) and alpha-amino butyric (B or aBut) are tolerated at the P1 position”. For the same molecule, the “percent of peptide-AMC that is cleaved” value [4] was “norleucine (nL) and alpha-amino butyric (B or aBut) are tolerated at the P1 position”, the “percent of peptide-AMC that is cleaved” value [5] was “norleucine (nL) and alpha-amino butyric (B or aBut) are tolerated at the P1 position” and the “percent of peptide-AMC that is cleaved” value [6] was “norleucine (nL) and alpha-amino butyric (B or aBut) are tolerated at the P1 position”. For the same molecule, the “percent of peptide-AMC that is cleaved” value [7] was “norleucine (nL) and alpha-amino butyric (B or aBut) are tolerated at the P1 position”, the “percent of peptide-AMC that is cleaved” value [8] was “norleucine (nL) and alpha-amino butyric (B or aBut) are tolerated at the P1 position” and the “percent of peptide-AMC that is cleaved” value [9] was “norleucine (nL) and alpha-amino butyric (B or aBut) are tolerated at the P1 position”. The “percent of peptide-AMC that is cleaved” value [10] was “norleucine (nL) and alpha-amino butyric (B or aBut) are tolerated at the P1 position”, the “percent of peptide-AMC that is cleaved” value [11] was “norleucine (nL) and alpha-amino butyric (B or aBut) are tolerated at the P1 position” and the “percent of peptide-AMC that is cleaved” value [12] was “norleucine (nL) and alpha-amino butyric (B or aBut) are tolerated at the P1 position”.

For `CC(C)n1nc(-c2ccc3oc(N)nc3c2)c2c(N)ncnc21` [INK-128], the “suppression of Th1-type CD4 T cell response (IFNγ)” value (“suppression … (IFNγ)” below) [13] was “substantially improved T cell response suppression as compared with Rapa, CC223 and OSI-027”.

In the case of `CNC(=O)Nc1ccc(-c2nc(N3CC4CCC(C3)O4)c3cnn(C4CCC5(CC4)OCCO5)c3n2)cc1` [WYE132], the “suppression … (IFNγ)” value [13] is reported as “substantially improved T cell response suppression as compared with Rapa, CC223 and OSI-027”.

With `COc1ccc(-c2ccc3c(N4CCOC[C@@H]4C)nc(N4CCOC[C@@H]4C)nc3n2)cc1CO` [AZD8055] the “suppression … (IFNγ)” value [13] was “substantially improved T cell response suppression as compared with Rapa, CC223 and OSI-027”.

With `CCC(=O)N1CCN(c2ccc(-n3c(=O)ccc4cnc5ccc(-c6cnc7ccccc7c6)cc5c43)cc2C(F)(F)F)CC1` [Torin 1] the “suppression of T cell responses against D2” value [14] was “greater T cell suppression as compared with Rapamycin”, the “suppression … (IFNγ)” value [13] was “substantially improved T cell response suppression as compared with Rapa, CC223 and OSI-027” and the “solubility in DMSO and aqueous buffer” value [15] was “markedly improved the solubility”.

`CCOCc1nc2c(N)nc3ccccc3c2n1CC(C)(C)O` [Compound R848] gave a Turbidity [16] of 0.039.
